In the assay the target is human factor H (human, UniProt P08603 19-1231). The assay can be described thus: ELISA. For orientation: In an ELISA, binding on a coated surface is turned into a signal by an enzyme label.
human factor H, sequence (P08603 19-1231): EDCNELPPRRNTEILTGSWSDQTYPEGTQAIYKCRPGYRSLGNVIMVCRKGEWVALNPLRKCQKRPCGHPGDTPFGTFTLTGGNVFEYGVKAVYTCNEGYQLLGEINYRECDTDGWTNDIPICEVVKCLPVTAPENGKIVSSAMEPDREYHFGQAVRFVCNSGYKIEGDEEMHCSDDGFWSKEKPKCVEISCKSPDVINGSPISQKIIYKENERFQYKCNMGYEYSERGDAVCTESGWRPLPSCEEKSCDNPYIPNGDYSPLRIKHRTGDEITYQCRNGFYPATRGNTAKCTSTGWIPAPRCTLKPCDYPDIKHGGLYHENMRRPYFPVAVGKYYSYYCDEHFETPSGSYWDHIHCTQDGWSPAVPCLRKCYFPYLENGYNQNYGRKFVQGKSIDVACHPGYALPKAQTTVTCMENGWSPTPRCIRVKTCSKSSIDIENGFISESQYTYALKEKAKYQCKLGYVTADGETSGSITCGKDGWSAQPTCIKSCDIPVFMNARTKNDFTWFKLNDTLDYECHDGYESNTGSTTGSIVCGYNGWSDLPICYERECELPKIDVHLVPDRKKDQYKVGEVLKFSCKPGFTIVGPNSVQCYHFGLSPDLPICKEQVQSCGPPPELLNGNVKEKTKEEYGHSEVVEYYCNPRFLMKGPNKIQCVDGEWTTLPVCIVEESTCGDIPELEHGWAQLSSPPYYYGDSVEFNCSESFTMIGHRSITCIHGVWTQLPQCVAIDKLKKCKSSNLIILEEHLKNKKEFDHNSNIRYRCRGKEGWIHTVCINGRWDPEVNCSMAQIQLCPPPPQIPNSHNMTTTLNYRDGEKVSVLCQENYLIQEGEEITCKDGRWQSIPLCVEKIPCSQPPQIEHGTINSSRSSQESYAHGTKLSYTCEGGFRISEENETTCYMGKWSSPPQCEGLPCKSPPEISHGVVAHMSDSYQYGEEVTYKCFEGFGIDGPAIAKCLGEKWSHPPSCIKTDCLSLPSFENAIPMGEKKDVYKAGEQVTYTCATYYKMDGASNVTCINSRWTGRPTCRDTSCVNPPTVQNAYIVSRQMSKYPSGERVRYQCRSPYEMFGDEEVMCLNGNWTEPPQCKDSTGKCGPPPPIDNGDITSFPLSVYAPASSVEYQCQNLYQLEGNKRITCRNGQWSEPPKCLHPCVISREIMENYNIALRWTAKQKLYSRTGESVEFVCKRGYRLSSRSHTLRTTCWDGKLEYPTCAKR

B1: histidine-tagged CspZ (natural protein, B. burgdorferi)
chain: RLNQRNINELKIFVEKAKYYSIKLDAIYNECTGAYNDIMTYSEGTFSDQSKVNQAISIFKKDNKIVNKFKELEKIIEEYKPMFLSKLIDDFAIELDQAVDNDVSNARHVADSYKKLRKSVVLAYIESFDVISSKFVDSKFVEASKKFVNKAKEFVEENDLIALECIVKTIGDMVNDREINSRSRYNNFYKKEADFLGAAVELEGAYKAIKQTLL
As to B1, the binding result is on record as “binds”.

Source of the values: paper PMC11565809 (bioRxiv, 2024).
